The values that follow come from US20230235004A1 (published 2023).

Like-named read-outs stand apart in the source and are kept apart here.

Test [1] concerns the target T1, human MAdCAM expressed on cells (human, UniProt Q13477 19-382).
T1 construct: whole, on cells
T1 sequence (looked up): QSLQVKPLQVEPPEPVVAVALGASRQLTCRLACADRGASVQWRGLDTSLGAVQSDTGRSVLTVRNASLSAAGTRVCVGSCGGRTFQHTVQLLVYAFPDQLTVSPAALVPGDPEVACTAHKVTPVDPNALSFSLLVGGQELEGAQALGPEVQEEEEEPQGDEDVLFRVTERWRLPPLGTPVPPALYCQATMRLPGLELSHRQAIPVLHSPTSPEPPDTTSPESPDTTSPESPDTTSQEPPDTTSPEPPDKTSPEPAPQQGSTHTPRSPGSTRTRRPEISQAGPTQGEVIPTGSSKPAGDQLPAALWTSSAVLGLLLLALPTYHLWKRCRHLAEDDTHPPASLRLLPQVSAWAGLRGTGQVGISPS
Description: cell binding.

Test [2] deals with T2, mouse MAdCAM expressed on cells (mouse, UniProt Q61826 22-405).
T2 construct: whole, on cells
T2 sequence (looked up): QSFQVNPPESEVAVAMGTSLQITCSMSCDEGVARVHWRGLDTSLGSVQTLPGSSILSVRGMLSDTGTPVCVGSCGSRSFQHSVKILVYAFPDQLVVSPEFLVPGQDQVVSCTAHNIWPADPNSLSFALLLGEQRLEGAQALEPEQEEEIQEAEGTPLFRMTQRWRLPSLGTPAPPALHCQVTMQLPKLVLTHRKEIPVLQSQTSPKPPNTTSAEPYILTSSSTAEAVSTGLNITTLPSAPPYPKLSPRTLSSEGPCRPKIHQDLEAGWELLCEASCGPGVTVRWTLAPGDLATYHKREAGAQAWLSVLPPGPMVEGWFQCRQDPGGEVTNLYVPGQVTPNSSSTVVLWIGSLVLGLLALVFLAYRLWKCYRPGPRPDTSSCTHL
In words: cell binding.

Another test deals with T3, human MAdCAM protein (human, UniProt Q13477 19-317, limits assumed).
T3 construct: also called soluble monomeric human MAdCAM; recombinant human MAdCAM
T3 sequence (looked up): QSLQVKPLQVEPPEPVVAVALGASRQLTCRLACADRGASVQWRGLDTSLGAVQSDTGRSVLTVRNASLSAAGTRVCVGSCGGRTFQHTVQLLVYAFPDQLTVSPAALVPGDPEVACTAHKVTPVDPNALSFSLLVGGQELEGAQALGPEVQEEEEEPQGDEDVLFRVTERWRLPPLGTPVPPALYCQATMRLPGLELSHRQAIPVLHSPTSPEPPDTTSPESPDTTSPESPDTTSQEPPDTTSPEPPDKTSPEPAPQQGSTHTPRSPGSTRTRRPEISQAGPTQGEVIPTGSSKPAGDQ
In words: Octet. For orientation: BLI is a label-free optical method that tracks binding on a fibre tip over time.

In test [3] the target is T1, human MAdCAM expressed on cells. Description: cell binding. The source holds these as a separate data set.
The target in test [4] is T2, mouse MAdCAM expressed on cells. Description: cell binding. This is another data set of the same source.

B1: MAdCAM antibody Table 1 clone 3 (scFv)
scFv: QVQLVQSGAEVKKPGASVKVSCKASGYPFIGQYLHWVRQAPGQGLEWMGIINPSGGSTSYAQKFQGRVTMTRDTSTSTVYMELSSLRSEDTAVYYCAREGRLSYGMDAWGQGTLVTVSSGGGGSGGGGSGGGGSGGGGSDIQMTQSPSSLSASVGDRVTITCRASQSISSYLAWYQQKPGKAPKLLIYGASTLESGVPSRFSGSGSGTDFTLTISSLQPEDFATYYCQQTWGPPFTFGQGTKLEIK
As to B1, the binding result in test [1] and in test [2] was “binds” in each case.

B2: MAdCAM antibody Table 1 clone 54 (scFv)
scFv: EVQLLESGGGLVQPGGSLRLSCAASGFTFGDYAMSWVRQAPGKGLEWVAVVSYDGTNKYYADSVKGRFTISRDNSKNTLYLQMNSLRAEDTAVYYCAKDICSSTSCYFDLWGRGTLVTVSSGGGGSGGGGSGGGGSGGGGSDIQMTQSPSSLSASVGDRVTITCRASQNINNYVNWYQQKPGKAPKLLIYDASNLETGVPSRFSGSGSGTDFTLTISSLQPEDFATYYCQQANSFPPTFGQGTRLEIK
For B2, the binding result in test [1] is reported as “binds”; in test [2] it was “no binding”.

B3: MAdCAM Antibody Table 2 clone 36 (antibody, V domains shown)
VH: EVQLLESGGGLVQPGGSLRLSCAASGFTFDDYALHWVRQAPGKGLEWVSAISGDGRSTTYADSVKGRFTISRDNSKNTLYLQMNSLRAEDTAVYYCARDGTVNGATGWFDPWGQGTLVTVSS
VL: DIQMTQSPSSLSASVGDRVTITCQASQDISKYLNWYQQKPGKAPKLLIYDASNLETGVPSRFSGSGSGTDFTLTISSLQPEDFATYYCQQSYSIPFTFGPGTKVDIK
notes: IgG format
As for B3, the binding result (with human MAdCAM protein; in test [3]; in test [4]) was “binds” each time.

B4: MAdCAM antibody Table 1 clone 14 (scFv)
scFv: QVQLVQSGAEVKKPGSSVKVSCKASGYTFTDYHIHWVRQAPGQGLEWMGGIVPRSGSTTYAQKFQGRVTITADESTSTAYMELSSLRSEDTAVYYCAKDESSGWYYFDYWGQGTLVTVSSGGGGSGGGGSGGGGSGGGGSDIVMTQSPLSLPVTPGEPASISCRSSQSLLHSNGYNYLDWYLQKPGQSPQLLIYSAYNRASGVPDRFSGSGSGTDFTLKISRVEAEDVGVYYCMQALQTPLTFGQGTKVEIK
Turning to B4, the figures for the binding result in test [1] and in test [2] were “binds” and “no binding”, respectively.

B5: MAdCAM antibody Table 1 clone 15 (scFv)
scFv: QVQLVQSGAEVKKPGSSVKVSCKASGYTFTNYYMHWVRQAPGQGLEWMGGIIPIVDRVKYAQKFQGRVTITADESTSTAYMELSSLRSEDTAVYYCAKGRYTVNYYYGMDVWGQGTTVTVSSGGGGSGGGGSGGGGSGGGGSDIQMTQSPSSLSASVGDRVTITCQANQDISNYLNWYQQKPGKAPKLLIYRASKLEAGVPSRFSGSGSGTDFTLTISSLQPEDFATYYCQQSSEIPYSFGQGTKLEIK
For the molecule B5, the binding result is “binds” in test [1] and “no binding” in test [2].

B6: MAdCAM antibody Table 1 clone 13 (scFv)
scFv: EVQLLESGGGLVQPGGSLRLSCAASGFTFDDYAMHWVRQAPGKGLEWVSYIDASGTTIYYADSVKGRFTISRDNSKNTLYLQMNSLRAEDTAVYYCAKDQAAAGYWYFDLWGRGTLVTVSSGGGGSGGGGSGGGGSGGGGSDIQMTQSPSSLSASVGDRVTITCQASQDISNYLNWYQQKPGKAPKLLIYKASTLESGVPSRFSGSGSGTDFTLTISSLQPEDFATYYCQQSYSTPITFGQGTRLEIK
For B6, the binding result in test [1] was “binds”; in test [2], “no binding”.

B7: MAdCAM Antibody Table 2 clone 58 (antibody, V domains shown)
VH: EVQLLESGGGLVQPGGSLRLSCAASGFSVSSNYMSWVRQAPGKGLEWVAGISYDGSSKPYADSVKGRFTISRDNSKNTLYLQMNSLRAEDTAVYYCARSRGIAARPLQHWGQGTLVTVSS
VL: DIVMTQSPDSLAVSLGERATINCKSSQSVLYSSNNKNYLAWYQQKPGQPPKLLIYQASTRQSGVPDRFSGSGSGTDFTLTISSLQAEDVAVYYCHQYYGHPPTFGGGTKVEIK
notes: IgG format
As for B7, the figures for the binding result (with human MAdCAM protein; in test [3]; in test [4]) were “binds”, “binds” and “no binding”, respectively.

B8: MAdCAM antibody Table 1 clone 11 (scFv)
scFv: QVQLVQSGAEVKKPGASVKVSCKASGYTFTTYYMHWVRQAPGQGLEWMGGFDPEDGETIYAQKFQGRVTMTRDTSTSTVYMELSSLRSEDTAVYYCARHAVAGAVGAGYYYYGMDVWGQGTMVTVSSGGGGSGGGGSGGGGSGGGGSDIQMTQSPSSLSASVGDRVTITCRASESISNWLAWYQQKPGKAPKLLIYAASTLQSGVPSRFSGSGSGTDFTLTISSLQPEDFATYYCQQSYSVPFTFGPGTKVDIK
As to B8, the binding result is “binds” in test [1] and “no binding” in test [2].

B9: MAdCAM antibody Table 1 clone 12 (scFv)
scFv: QVQLVQSGAEVKKPGASVKVSCKASGYTFTGYYMHWVRQAPGQGLEWMGWIGPNSGDTNYAQKFQGRVTMTRDTSTSTVYMELSSLRSEDTAVYYCARDLDHNWYFDLWGRGTLVTVSSGGGGSGGGGSGGGGSGGGGSDIVMTQSPLSLPVTPGEPASISCRSSQSLLHSNGYNYLDWYLQKPGQSPQLLIYSSSNRAPGVPDRFSGSGSGTDFTLKISRVEAEDVGVYYCMQALHIPLTFGGGTKVEIK
As for B9, the binding result in test [1] is given as “binds”; in test [2] it was “no binding”.

B10: MAdCAM antibody Table 1 clone 55 (scFv)
scFv: QVQLVQSGAEVKKPGASVKVSCKASGYTFTSYYMHWVRQAPGQGLEWMGIIDPSGGSTSYAQKFQGRVTMTRDTSTSTVYMELSSLRSEDTAVYYCAREEWSSGGVGYFDYWGQGTLVTVSSGGGGSGGGGSGGGGSGGGGSDIQMTQSPSSLSASVGDRVTITCRASQGISSYLAWYQQKPGKAPKLLIYATSSLQTGVPSRFSGSGSGTDFTLTISSLQPEDFATYYCQQTYSIPITFGQGTRLEIK
As to B10, the binding result is listed as “binds” in test [1] and “no binding” in test [2].

B11: MAdCAM Antibody Table 2 clone 30 (antibody, V domains shown)
VH: EVQLLESGGGLVQPGGSLRLSCAASGFTFSSYAMHWVRQAPGKGLEWVSGISGSGGSAYYADSVKGRFTISRDNSKNTLYLQMNSLRAEDTAVYYCATSQAPVDYYYYGMDVWGQGTTVTVSS
VL: DIQMTQSPSSLSASVGDRVTITCRASQSISSWLAWYQQKPGKAPKLLIYAASNLQRGVPSRFSGSGSGTDFTLTISSLQPEDFATYYCQQSYSIPITFGQGTKVEIK
notes: IgG format
B11: the binding result (with human MAdCAM protein; in test [3]; in test [4]) was “binds” in each case.

B12: MAdCAM Antibody Table 2 clone 60 (antibody, V domains shown)
VH: EVQLLESGGGLVQPGGSLRLSCAASGFTFSDHGMHWVRQAPGKGLEWVSVIYGGESTYYADSVKGRFTISRDNSKNTLYLQMNSLRAEDTAVYYCARDPAVAGGGIFDYWGQGTLVTVSS
VL: DIQMTQSPSSLSASVGDRVTITCRASQGISNYLAWYQQKPGKAPKLLIYDASNLETGVPSRFSGSGSGTDFTLTISSLQPEDFATYYCQQSYSTCYTFGQGTKLEIK
notes: IgG format
In the case of B12, the binding result (in the test with human MAdCAM protein; in test [3]; in test [4]) was “binds” each time.

B13: MAdCAM antibody Table 1 clone 57 (scFv)
scFv: QVQLVQSGAEVKKPGASVKVSCKASGYTFTSYYMHWVRQAPGQGLEWMGIINPSGGSTSYAQKFQGRVTMTRDTSTSTVYMELSSLRSEDTAVYYCARDSVAGTGGRYYGMDVWGQGTLVTVSSGGGGSGGGGSGGGGSGGGGSDIQMTQSPSSLSASVGDRVTITCRASQGISNYFAWYQQKPGKAPKLLIYAASSLQGGVPSRFSGSGSGTDFTLTISSLQPEDFATYYCQQSYSLPYTFGQGTKLEIK
In the case of B13, the binding result in test [1] is on record as “binds”; in test [2] it was “no binding”.

B14: MAdCAM Antibody Table 2 clone 55 (antibody, V domains shown)
VH: EVQLLESGGGLVQPGGSLRLSCAASGFTFDDFAMHWVRQAPGKGLEWVSGISGNGDSRYYADSVKGRFTISRDNSKNTLYLQMNSLRAEDTAVYYCARDASYGGNYGMDVWGQGTTVTVSS
VL: DIQMTQSPSSLSASVGDRVTITCQASQDIRNYLNWYQQKPGKAPKLLIYKASTLESGVPSRFSGSGSGTDFTLTISSLQPEDFATYYCQQANSFPLTFGPGTKVDIK
notes: IgG format
In the case of B14, the binding result in the test with human MAdCAM protein was “binds”; in test [3], “binds”; in test [4] it was “no binding”.

B15: MAdCAM antibody Table 1 clone 58 (scFv)
scFv: QVQLVQSGAEVKKPGASVKVSCKASGYTFTGYYMHWVRQAPGQGLEWMGIINPSGGNTKYAQKFQGRVTMTRDTSTSTVYMELSSLRSEDTAVYYCTTADYYYYMDVWGKGTTVTVSSGGGGSGGGGSGGGGSGGGGSDIQMTQSPSSLSASVGDRVTITCRASQGISNYLAWYQQKPGKAPKLLIYAASSLQSGVPSRFSGSGSGTDFTLTISSLQPEDFATYYCQQYYSNADFGQGTKVEIK
For the molecule B15, the binding result was “binds” in test [1] and “no binding” in test [2].
